Target: Recombinant Human Integrin α4β1 Protein, CF (human, UniProt P13612 35-977; P05556 21-728)
Assay: surface enhanced Raman spectroscopy

Recombinant Human Integrin α4β1 Protein, CF, sequence (P13612 35-977, chain 1 of 2): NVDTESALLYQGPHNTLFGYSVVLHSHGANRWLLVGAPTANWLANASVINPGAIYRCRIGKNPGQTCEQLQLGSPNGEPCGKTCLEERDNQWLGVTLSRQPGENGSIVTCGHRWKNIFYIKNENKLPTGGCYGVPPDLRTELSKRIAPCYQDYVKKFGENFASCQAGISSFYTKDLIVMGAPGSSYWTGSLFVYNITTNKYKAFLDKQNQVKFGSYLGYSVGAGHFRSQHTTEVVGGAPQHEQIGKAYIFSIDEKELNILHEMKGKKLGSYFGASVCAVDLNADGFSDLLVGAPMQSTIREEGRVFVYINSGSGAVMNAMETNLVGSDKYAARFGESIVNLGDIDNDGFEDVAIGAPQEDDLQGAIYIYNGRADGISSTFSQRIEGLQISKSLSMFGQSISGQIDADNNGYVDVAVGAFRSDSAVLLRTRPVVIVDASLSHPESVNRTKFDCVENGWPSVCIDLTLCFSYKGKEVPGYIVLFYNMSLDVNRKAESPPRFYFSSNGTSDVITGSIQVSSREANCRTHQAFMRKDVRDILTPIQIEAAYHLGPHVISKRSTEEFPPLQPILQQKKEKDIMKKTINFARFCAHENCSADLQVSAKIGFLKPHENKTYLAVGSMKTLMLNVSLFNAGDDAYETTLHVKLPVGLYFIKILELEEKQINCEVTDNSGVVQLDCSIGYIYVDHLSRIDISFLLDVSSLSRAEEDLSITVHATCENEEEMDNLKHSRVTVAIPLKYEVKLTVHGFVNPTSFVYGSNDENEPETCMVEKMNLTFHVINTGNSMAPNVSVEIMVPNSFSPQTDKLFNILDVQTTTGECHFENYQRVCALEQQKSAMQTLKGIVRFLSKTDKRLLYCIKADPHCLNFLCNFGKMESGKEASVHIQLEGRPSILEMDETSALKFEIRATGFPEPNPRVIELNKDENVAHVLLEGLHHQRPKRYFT
Recombinant Human Integrin α4β1 Protein, CF, sequence (P05556 21-728, chain 2 of 2): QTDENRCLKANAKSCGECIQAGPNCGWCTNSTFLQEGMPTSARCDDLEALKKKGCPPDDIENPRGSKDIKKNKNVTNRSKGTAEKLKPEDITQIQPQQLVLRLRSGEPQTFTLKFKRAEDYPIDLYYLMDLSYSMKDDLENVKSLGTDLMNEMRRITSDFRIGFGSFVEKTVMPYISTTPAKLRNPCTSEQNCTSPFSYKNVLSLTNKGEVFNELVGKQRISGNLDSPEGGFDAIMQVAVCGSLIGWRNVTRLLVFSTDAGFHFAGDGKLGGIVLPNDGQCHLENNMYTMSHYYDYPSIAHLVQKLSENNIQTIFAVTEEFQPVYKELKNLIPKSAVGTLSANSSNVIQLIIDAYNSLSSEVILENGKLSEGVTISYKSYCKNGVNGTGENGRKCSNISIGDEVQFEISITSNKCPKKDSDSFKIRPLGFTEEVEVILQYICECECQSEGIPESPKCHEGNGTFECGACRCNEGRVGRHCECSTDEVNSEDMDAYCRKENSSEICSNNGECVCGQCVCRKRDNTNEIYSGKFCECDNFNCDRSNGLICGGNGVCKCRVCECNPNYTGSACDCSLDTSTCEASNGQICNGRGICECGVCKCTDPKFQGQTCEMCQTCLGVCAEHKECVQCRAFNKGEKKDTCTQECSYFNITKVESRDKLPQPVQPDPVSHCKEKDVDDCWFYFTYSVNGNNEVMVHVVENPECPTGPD

binding result: binds
B1: Cys-Asp-Pro-Gly-Tyr-Ile-Gly-Ser-Arg (CDPGYIGSR) (peptide)
peptide: CDPGYIGSR
modifications: not fully specified; functionalized onto gold coated magnetic nanoparticles (thiol chemistry of the Cys)
